From patent US20170051048A1 (ALDERBIO, published 2017)

How the values were obtained:
[1] = molecular target: T1, Homo sapiens Beta-Nerve Growth Factor (beta-NGF) (Homo sapiens, UniProt P01138 122-241); test: antigen binding ELISA: biotinylated NGF on neutravidin plates, anti-human Fc-HRP, OD at 450 nm
T1 construct: Biotinylated and held on neutravidin plates in the ELISA; also called huNGF; B-NGF
Description: (§1) To identify and characterize antibodies and Fab fragments that bind to human NGF, antibody- and Fab-containing solutions were tested by ELISA. Briefly, neutravidin coated plates (Thermo Scientific), were blocked with ELISA buffer (0.1 mg/mL BSA, 1×PBS pH 7.4, 0.002% Tween 20 and 0.005% sodium azide) for 1 hr at room temperature. The plates were then coated with a 1 µg/mL biotinylated B-NGF solution in ELISA buffer for 1 hour at room temperature. This was followed by a wash step (3× using PBS plus 0.05% Tween 20) and a second block with ELISA buffer. The recombinant antibodies or Fabs were then added onto the plates and incubated for 1 hour at room temperature and then washed 3× with PBS/Tween solution. For development, an anti-human Fc-HRP or an anti-human Fab-fragment HRP (1:5000 dilution in ELISA buffer) was added onto the wells and incubated for 45 min at RT. After a 3× wash step with PBS/Tween solution, the plate was developed using TMB substrate for 3 minutes, stopped using 0.5M HCl, and read at 450 nm.

[2] = molecular target: T1, Homo sapiens Beta-Nerve Growth Factor …; test: Antigen binding ELISA: biotinylated NGF on neutravidin plates, anti-human Fc-HRP, OD 450 nm
Description: as §1

T1 sequence (P01138 122-241): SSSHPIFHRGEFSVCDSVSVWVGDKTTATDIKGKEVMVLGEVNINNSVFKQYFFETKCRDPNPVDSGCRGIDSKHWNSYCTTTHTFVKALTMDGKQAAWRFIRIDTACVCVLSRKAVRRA

B1: Antibody Ab16 (antibody, human IgG1, kappa, N297A, V domains shown)
VH: QSVEEFGGRLVTPGTPLTLTCTVSGFSLNNYAMTWVRQAPGKGLEWIGIIGSIGTTYYASWAKGRFFISKTSTTVDLKIISPTTEDTATYFCARDAGVTVDGYGYYFNIWGPGTLVTVSS
VL: ALVMTQTPSSTSEPVGGTVTINCQASQNIGNDLSWYQQKPGQPPELLIYSTSKLATGVPKRFSGSRSGTQFTLTISDLECDDAATYYCLGVYSYISDDGNAFGGGTEVVVKR
**Q.** For B1, which EC50 [1] is on record?
**A.** 0.358 nM

B2: Antibody Ab5 (antibody, human IgG1, kappa, N297A, V domains shown)
VH: QSVEESGGRLVTPGTPLTLTCTVSGFSLSNYAVGWVRQAPGKGLEWIGIIGRNGNTWYASWARGRFTISKTSTTVDLKITSPTSEDTATYFCARGYGRSVAYYVFNIWGPGTLVTVSS
VL: AYDMTQTPASVEVAVGGTVTIKCQASQSIYSNLAWYQQRPGQPPKLLIYDASTLESGVPSRFKGSGSGTEYTLTISGVECADAASYYCQQGFTVSDIDNAFGGGTEVVVKR
**Q.** For B2, which EC50 [2] is on record?
**A.** 0.253 nM

**Q.** And the “EC50 (read off the curve)” value [2]?
**A.** ~0.3 nM

B3: Antibody Ab10 (antibody, human IgG1, kappa, N297A, V domains shown)
VH: QVQLVESGGGVVQPGRSLRLSCAASGFTFSMYSMGWVRQAPGKGLEYIGWISYGGTAYYASSAKGRFTISRDNSKNTLYLQMSSLRAEDTAVYYCARETPVNYYLDIWGQGTLVTVSS
VL: AYDMTQSPSSLSASVGDRVTITCQASENIGSYLAWYQQKPGKVPKLLIYRASTLASGVPSRFSGSGSGTDFTLTISSLQPEDVATYYCQQGYNSENLDNAFGGGTKVEIKR
**Q.** For B3, which EC50 [1] is on record?
**A.** 0.306 nM

B4: Antibody Ab2 (antibody, human IgG1, kappa, N297A, V domains shown)
VH: EVQLVESGGGLVQPGGSLRLSCAASGFTVSSYAMSWVRQAPGKGLEWVGVITSIGSTVYASSAKGRFTISRDNSKNTLYLQMNSLRAEDTAVYYCARGYDDYDEMTYFNIWGQGTLVTVSS
VL: DIQMTQSPSTLSASVGDRVTITCQASQNIYSNLAWYQQKPGKAPKLLIYGASNLDAGVPSRFSGSGSGTEYTLTISSLQPDDFATYYCQSAFDSDSTENTFGGGTKVEIKR
**Q.** For B4, which EC50 [2] is on record?
**A.** 0.692 nM

**Q.** What about the “EC50 (read off the curve)” value [2] of the same binder?
**A.** ~0.7 nM

B5: Antibody Ab9 (antibody, human IgG1, kappa, N297A, V domains shown)
VH: QSVEESGGRLVTPGTPLTLTCTVSGIDLSMYSMGWVRQAPGKGLEYIGWISYGGTAYYASWAKGRFTISKTSTTVELKITSPTIEDTATYFCARETPVNYYLDIWGQGTLVTVSS
VL: AYDMTQTPASVSAAVGGTVTIKCQASENIGSYLAWYQQKPGQPPELLIYRASTLASGVPSRFKGSGSGTQFTLTISGVECADAATYYCQQGYNSENLDNAFGGGTEVVVKR
**Q.** With B5 as the binder, how does the EC50 [1] read?
**A.** 0.221 nM

B6: Antibody Ab18 (antibody, human IgG1, kappa, N297A, V domains shown)
VH: EVQLVESGGGLVQPGGSLRLSCAASGFTVSGYNLVWVRQAPGKGLEWVGFISYGDTTYYASSAKGRFTISRDNSKNTLYLQMNSLRAEDTAVYYCARETANTYDYGIWGQGTLVTVSS
VL: DIQMTQSPSTLSASVGDRVTITCQASQTISNYLAWYQQKPGKAPKLLIYGASNLESGVPSRFSGSGSGTEFTLTISSLQPDDFATYYCQQGYTISNVDNNVFGGGTKVEIKR
**Q.** Which EC50 [1] does the source give for B6 here?
**A.** 0.561 nM

B7: Antibody Ab12 (antibody, human IgG1, kappa, N297A, V domains shown)
VH: QVQLVESGGGVVQPGRSLRLSCAASGFSLSGYDMSWVRQAPGKGLEWVGLISYDGNTYYATSAKGRFTISRDNSKNTLYLQMSSLRAEDTAVYYCARSLYAGPNAGIGPFNIWGQGTLVTVSS
VL: AFQMTQSPSSLSASVGDRVTITCQASQNIVTNLAWYQQKPGKVPKLLIYGASTLASGVPSRFSGSGSGTDFTLTISSLQPEDVATYYCQSYDGFNSAGFGGGTKVEIKR
**Q.** For B7, which EC50 [1] is on record?
**A.** 0.78 nM

B8: Antibody Ab11 (antibody, human IgG1, kappa, N297A, V domains shown)
VH: QSLEESGGRLVTPGTPLTLTCTASGFSLSGYDMSWVRQAPGKGLEYIGLISYDGNTYYATWAKGRFTISKTSTTVDLKITSPTTEDTATYFCARSLYAGPNAGIGPFNIWGQGTLVTVSS
VL: AFELTQTPSSVEAAVGGTVTIKCQASQNIVTNLAWYQQKPGQPPKLLIYGASTLASGVSSRFKGSGSGTQFTLTISDLECADAATYFCQSYDGFNSAGFGGGTEVVVKR
**Q.** For B8, which EC50 [1] is on record?
**A.** 0.379 nM

B9: Antibody Ab14 (antibody, human IgG1, kappa, N297A, V domains shown)
VH: EVQLVESGGGLVQPGGSLRLSCAASGFTVSTYWMSWVRQAPGKGLEWVGDIYFSNEETNYASSAKGRFTISRDNSKNTLYLQMNSLRAEDTAVYYCARGSPDVDIGIDMWGPGTLVTVSS
VL: DIQMTQSPSSLSASVGDRVTITCQSSQNVYKNNYLSWYQQKPGKVPKLLIYKASTLASGVPSRFSGSGSGTDFTLTISSLQPEDVATYYCAGGYTSSSDNAFGGGTKVEIKR
**Q.** Which EC50 [1] does the source give for B9 here?
**A.** 0.646 nM

B10: Antibody Ab20 (antibody, human IgG1, kappa, N297A, V domains shown)
VH: EVQLVESGGGLVQPGGSLRLSCAASGFTVSTYWMSWVRQAPGKGLEWVGDIYFSNEETNYATSAKGRFTISRDNSKNTLYLQMNSLRAEDTAVYYCARGSPDVEIAIDMWGQGTLVTVSS
VL: DIQMTQSPSSLSASVGDRVTITCQSSQNVYKNNYLSWYQQKPGKVPKLLIYKASTLASGVPSRFSGSGSGTDFTLTISSLQPEDVATYYCAGGYTSSSDNAFGGGTKVEIKR
**Q.** B10 was tested. Which EC50 [1] did it give?
**A.** 0.667 nM

B11: Antibody Ab15 (antibody, human IgG1, kappa, N297A, V domains shown)
VH: QSVEESGGRLVTPGTPLTLTCTVSGIDLSSYAMIWVRQAPGKGLEYIGIIWSGGTYYATWAKGRFTISKTSTTVDLQITSPTTEDAATYFCAAGGGSIYDVWGPGTLVTVSS
VL: AAVLTQTPSPVSAAVGDTVTIKCQSSQSVYKNNYLSWYQQKPGQPPKLLIYDASNLPSGVPSRFSGSGSGTQFTLTISGVQCDDAATYYCLGDYDDDTDNGFGGGTEVVVKR
**Q.** Which EC50 [1] does the source give for B11 here?
**A.** 0.239 nM

B12: Antibody Ab7 (antibody, human IgG1, kappa, N297A, V domains shown)
VH: QEQLKESGGRLVTPGTPLTLTCTVSGFSLSSYAMIWVRQAPGKGLEYIGYIDTDTSAYYASWVKGRFTISRTSTTVDLKITSPTTEDTATYFCARSYAAYGGYPATFDPWGPGTLVTVSS
VL: DVVMTQTPASVSQPVGGTVTIKCQASEDIYNLLAWYQQKPGQPPKLLIYSASTLASGVPSRFKGSGSGTEYTLTISGLECADAATYYCQNNYLVTTYGVAFGGGTEVVVKR
**Q.** Which EC50 [1] does the source give for B12 here?
**A.** 0.203 nM

B13: Antibody Ab1 (antibody, human IgG1, kappa, N297A, V domains shown)
VH: QSLEESGGRLVTPGTPLTLTCTVSGFSLSSYAMSWVRQAPGKGLEWIGVITSIGSTVYASWAKGRFTISKTSTTVDLKITSPTTEDTATYFCARGYDDYDEMTYFNIWGQGTLVTVSS
VL: ALVMTQTPSSVSAAVGGTVTINCQASQNIYSNLAWYQQRPGQRPKLLIYGASNLDAGVPSRFRGSGSGTEYTLTISDLECDDVGTYYCQSAFDSDSTENTFGGGTEVVVKR
**Q.** Which results are given for B13?
**A.** EC50 [2]: 0.571 nM; EC50 (read off the curve) [2]: ~0.6 nM

B14: Antibody Ab6 (antibody, human IgG1, kappa, N297A)
heavy: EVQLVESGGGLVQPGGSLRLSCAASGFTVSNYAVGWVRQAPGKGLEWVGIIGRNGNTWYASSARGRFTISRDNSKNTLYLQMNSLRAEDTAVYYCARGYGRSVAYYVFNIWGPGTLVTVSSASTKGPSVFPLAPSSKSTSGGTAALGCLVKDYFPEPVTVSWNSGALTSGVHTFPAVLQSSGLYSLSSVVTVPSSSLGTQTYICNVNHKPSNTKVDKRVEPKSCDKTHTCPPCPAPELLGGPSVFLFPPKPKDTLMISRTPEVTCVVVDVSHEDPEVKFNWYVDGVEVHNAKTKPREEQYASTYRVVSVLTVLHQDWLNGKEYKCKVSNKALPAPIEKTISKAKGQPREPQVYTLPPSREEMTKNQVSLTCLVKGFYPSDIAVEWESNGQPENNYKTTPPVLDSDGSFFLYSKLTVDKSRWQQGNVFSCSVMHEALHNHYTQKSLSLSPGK
light: DIQMTQSPSTLSASVGDRVTITCQASQSIYSNLAWYQQKPGKAPKLLIYDASTLESGVPSRFSGSGSGTEYTLTISSLQPDDFATYYCQQGFTVSDIDNAFGGGTKVEIKRTVAAPSVFIFPPSDEQLKSGTASVVCLLNNFYPREAKVQWKVDNALQSGNSQESVTEQDSKDSTYSLSSTLTLSKADYEKHKVYACEVTHQGLSSPVTKSFNRGEC
**Q.** With B14 as the binder, how does the EC50 [2] read?
**A.** 0.256 nM

**Q.** And the “EC50 (read off the curve)” value [2]?
**A.** ~0.3 nM

B15: Antibody Ab13 (antibody, human IgG1, kappa, N297A, V domains shown)
VH: QSVEASGGRLVTPGTPLTLTCTASGFSLSTYWMSWVRQAPGKGLEWIGDIYFSNEETNYASWAKGRFTISKTSTTVDLNVISPTTEDTATYFCARGSPDVDIGIDMWGPGTLVTVSS
VL: AAVLTQTPSPVSAAVGGTVSISCQSSQNVYKNNYLSWYQQKPGQPPKLLIYKASTLASGVPSRFKGGGSGTDFTLTISDVQCDAAATYYCAGGYTSSSDNAFGGGTEVVVKR
**Q.** Which EC50 [1] does the source give for B15 here?
**A.** 0.339 nM

B16: Antibody Ab19 (antibody, human IgG1, kappa, N297A, V domains shown)
VH: QSVEASGGRLVMPGGSLTLTCTASGFSLSTYWMSWVRQAPGKGLEWIGDIYFSNEETNYATWAKGRFTISKTSTTVDLNVISPTTEDTATYFCARGSPDVEIAIDMWGQGTLVTVSS
VL: AAVLTQTPSPVSAAVGGTVSISCQSSQNVYKNNYLSWYQQKPGQPPKLLIYKASTLASGVPSRFKGSGSGTDFTLTISDVQCDAAATYYCAGGYSSSSDNAFGGGTEVVVKR
**Q.** Which EC50 [1] does the source give for B16 here?
**A.** 0.441 nM

B17: Antibody Ab8 (antibody, human IgG1, kappa, N297A, V domains shown)
VH: QVQLVESGGGVVQPGRSLRLSCAASGFTFSSYAMIWVRQAPGKGLEYIGYIDTDTSAYYASSVKGRFTISRDNSKNTLYLQMSSLRAEDTAVYYCARSYAAYGGYPATFDPWGQGTLVTVSS
VL: DIQMTQSPSSLSASVGDRVTITCQASEDIYNLLAWYQQKPGKVPKLLIYSASTLASGVPSRFSGSGSGTDYTLTISSLQPEDVATYYCQNNYLVTTYGVAFGGGTKVEIKR
**Q.** For B17, which EC50 [1] is on record?
**A.** 0.207 nM

B18: Antibody Ab4 (antibody, human IgG1, kappa, N297A, V domains shown)
VH: EVQLVESGGGLVQPGGSLRLSCAASGFTVSSYVMIWVRQAPGKGLEYIGITWSAGTYYASSAKGRFTISRDNSKNTLYLQMNSLRAEDTAVYYCAGGGGSIYDIWGQGTLVTVSS
VL: DIQMTQSPSTLSASVGDRVTITCQSSQSVYKNNYLSWYQQKPGKAPKLLIYDASNLPSGVPSRFSGSGSGTEFTLTISSLQPDDFATYYCLGDYDDDADNAFGGGTKVEIKR
**Q.** Which EC50 [2] does the source give for B18 here?
**A.** 0.535 nM

**Q.** What about the “EC50 (read off the curve)” value [2] of the same binder?
**A.** ~0.05 nM

B19: Antibody Ab17 (antibody, human IgG1, kappa, N297A, V domains shown)
VH: QSLEESGGRLVTPGGSLTLTCAASGFSLTGYNLVWVRQAPGKGLEWIGFISYGDTTYYASWAKGRFTISKTSTTVTLTITDLQPSDTGTYFCARETANTYDYGIWGPGTLVTVSS
VL: AIEMTQTPFSVSAAVGGTVTIKCQASQTISNYLAWYQQKPGQPPKLLIYGASNLESGVPSRFKGSGSGTQFTLTISDLECDDAATYYCQQGYTISNVDNNVFGGGTEVVVKR
**Q.** For B19, which EC50 [1] is on record?
**A.** 0.7 nM
